Source: patent US20120219559A1 (Johns Hopkins, published 2012)

T1: PD-1 (Mus musculus, UniProt Q02242)
T1 sequence (membrane protein, looked up): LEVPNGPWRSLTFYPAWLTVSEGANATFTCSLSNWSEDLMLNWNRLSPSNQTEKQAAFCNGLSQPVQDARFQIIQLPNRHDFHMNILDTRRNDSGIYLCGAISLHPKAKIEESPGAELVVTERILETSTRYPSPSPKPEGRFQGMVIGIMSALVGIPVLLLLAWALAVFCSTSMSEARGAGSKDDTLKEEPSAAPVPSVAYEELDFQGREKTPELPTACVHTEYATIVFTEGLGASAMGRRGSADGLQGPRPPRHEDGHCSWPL

T2: mouse B7-H2, full length, expressed on 293T cells (mouse, UniProt Q9JHJ8 44-322)
T2 construct: whole, on cells
T2 sequence (looked up): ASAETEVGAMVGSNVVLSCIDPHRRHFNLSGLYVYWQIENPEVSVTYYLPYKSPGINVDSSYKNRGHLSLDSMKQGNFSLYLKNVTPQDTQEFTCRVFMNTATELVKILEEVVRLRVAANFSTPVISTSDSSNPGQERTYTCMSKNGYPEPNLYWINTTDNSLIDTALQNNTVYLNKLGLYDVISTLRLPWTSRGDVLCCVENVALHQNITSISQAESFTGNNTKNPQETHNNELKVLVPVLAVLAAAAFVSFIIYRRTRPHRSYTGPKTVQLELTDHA

T3: B7-DC (Mus musculus, UniProt Q9WUL5)
T3 sequence (membrane protein, looked up): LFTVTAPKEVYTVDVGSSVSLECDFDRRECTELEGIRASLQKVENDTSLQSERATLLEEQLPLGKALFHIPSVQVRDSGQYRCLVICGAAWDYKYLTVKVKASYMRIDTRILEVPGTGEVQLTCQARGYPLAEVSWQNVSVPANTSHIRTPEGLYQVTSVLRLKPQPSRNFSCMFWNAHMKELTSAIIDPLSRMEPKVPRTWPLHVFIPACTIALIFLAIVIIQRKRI

T4: CD28 (Mus musculus, UniProt P31041)
T4 sequence (membrane protein, looked up): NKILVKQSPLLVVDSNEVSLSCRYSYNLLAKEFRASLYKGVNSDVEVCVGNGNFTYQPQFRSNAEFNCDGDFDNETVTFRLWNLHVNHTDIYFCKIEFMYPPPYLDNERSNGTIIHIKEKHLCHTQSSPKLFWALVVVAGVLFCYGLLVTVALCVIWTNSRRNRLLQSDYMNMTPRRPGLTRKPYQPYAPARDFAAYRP

B1: B7-DCIg (Fc fusion, Mus musculus, UniProt Q9WUL5 20-219, looked up)
fusion protein: LFTVTAPKEVYTVDVGSSVSLECDFDRRECTELEGIRASLQKVENDTSLQSERATLLEEQLPLGKALFHIPSVQVRDSGQYRCLVICGAAWDYKYLTVKVKASYMRIDTRILEVPGTGEVQLTCQARGYPLAEVSWQNVSVPANTSHIRTPEGLYQVTSVLRLKPQPSRNFSCMFWNAHMKELTSAIIDPLSRMEPKVPR
notes: Ig fusion protein purchased from R&D systems; also called mouse B7-DCIg fusion protein
B2: PD-1Ig (Fc fusion, Mus musculus, UniProt Q02242 25-167, looked up)
fusion protein: LEVPNGPWRSLTFYPAWLTVSEGANATFTCSLSNWSEDLMLNWNRLSPSNQTEKQAAFCNGLSQPVQDARFQIIQLPNRHDFHMNILDTRRNDSGIYLCGAISLHPKAKIEESPGAELVVTERILETSTRYPSPSPKPEGRFQ
notes: Ig fusion protein purchased from R&D systems; also called mouse PD-1Ig fusion protein
B3: B7-H2Ig (Fc fusion, Mus musculus, UniProt Q9JHJ8 47-279, looked up)
fusion protein: ETEVGAMVGSNVVLSCIDPHRRHFNLSGLYVYWQIENPEVSVTYYLPYKSPGINVDSSYKNRGHLSLDSMKQGNFSLYLKNVTPQDTQEFTCRVFMNTATELVKILEEVVRLRVAANFSTPVISTSDSSNPGQERTYTCMSKNGYPEPNLYWINTTDNSLIDTALQNNTVYLNKLGLYDVISTLRLPWTSRGDVLCCVENVALHQNITSISQAESFTGNNTKNPQETHNNELK
notes: Ig fusion protein purchased from R&D systems; also called mouse B7-H2Ig fusion protein
B4: ICOS (receptor, Mus musculus, UniProt Q9WVS0 21-200, looked up)
membrane protein: EINGSADHRMFSFHNGGVQISCKYPETVQQLKMRLFREREVLCELTKTKGSGNAVSIKNPMLCLYHLSNNSVSFFLNNPDSSQGSYYFCSLSIFDPPPFQERNLSGGYLHIYESQLCCQLKLWLPVGCAAFVVVLLFGCILIIWFSKKKYGSSVHDPNSEYMFMAAVNTNKKSRLAGVTS
B5: ICOSIg (Fc fusion, Mus musculus, UniProt Q9WVS0 21-144, looked up)
fusion protein: EINGSADHRMFSFHNGGVQISCKYPETVQQLKMRLFREREVLCELTKTKGSGNAVSIKNPMLCLYHLSNNSVSFFLNNPDSSQGSYYFCSLSIFDPPPFQERNLSGGYLHIYESQLCCQLKLWL
notes: Ig fusion protein purchased from R&D systems; also called mouse ICOSIg fusion protein

Experiments:
Assay in all cases: CDS well image, 293T cells transfected with the mouse gene, stained with the mouse fusion protein
PD-1 = target: T1, PD-1
B7-H1 = B7-H1 (Mus musculus, UniProt Q9EP73)
[1] = target: T2, mouse B7-H2, full length, expressed on …
B7-DC = target: T3, B7-DC
CD28 = target: T4, CD28
ICOS = target: B4
CTLA-4 = CTLA-4 (Mus musculus, UniProt P09793)
B7-DCIg = target: B1
B7-H1Ig = target: T5, B7-H1Ig (Mus musculus, UniProt Q9EP73)
T5 construct: Ig fusion protein purchased from R&D systems; also called mouse B7-H1Ig fusion protein
T5 sequence (Q9EP73 19-238 limits assumed): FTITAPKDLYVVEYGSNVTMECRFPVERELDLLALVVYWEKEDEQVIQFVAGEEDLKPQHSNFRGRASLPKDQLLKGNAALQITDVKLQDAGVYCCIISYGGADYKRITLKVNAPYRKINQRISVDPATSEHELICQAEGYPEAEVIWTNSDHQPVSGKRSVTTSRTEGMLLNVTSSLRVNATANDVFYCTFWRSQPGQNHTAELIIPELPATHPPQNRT

Chain of B7-H1 (Q9EP73 19-290 limits assumed): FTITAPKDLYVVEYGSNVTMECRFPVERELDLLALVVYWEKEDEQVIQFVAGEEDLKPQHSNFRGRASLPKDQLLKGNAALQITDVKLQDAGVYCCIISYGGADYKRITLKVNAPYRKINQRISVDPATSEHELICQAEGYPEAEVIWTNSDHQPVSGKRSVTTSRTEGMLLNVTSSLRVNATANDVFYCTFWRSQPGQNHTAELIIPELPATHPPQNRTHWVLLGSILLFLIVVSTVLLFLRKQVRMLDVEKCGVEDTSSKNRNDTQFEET

binding result (PD-1)	binding result (B7-H1)	binding result [1]	binding result (B7-DC)	binding result (CD28)	binding result (ICOS)	binding result (CTLA-4)	binding result (B7-DCIg)	binding result (B7-H1Ig)	Binder
binds	no binding	no binding	no binding						B1
no binding	binds	no binding	binds	no binding	no binding	no binding			B2
no binding	no binding	no binding							B3
							no binding	no binding	B4
no binding	no binding	binds	no binding	no binding	no binding	no binding			B5
